Reference: patent US20140228277A1 (Genentech, published 2014)
Starred links: 1 amine or outer side, 2 acyl side, 3 side chain; linkers in the order of their positions; H or OH if unused. Positions of bridges follow the written chain, without caps; N, C: chain ends. NH(CH2)3(OCH2CH2)2O(CH2)3NH = C(CN[*:1])COCCOCCOCCCN[*:2]

Columns and labels:
[1] = target: T1, human BACE1 extracellular domain (residues 22-457), wild type, C-terminal His8 (human, UniProt P56817 22-457); test: ELISA; biotinylated BACE020 on plate-coated BACE1 ECD (WT, the reference)
T1 construct: Expressed in CHO cells with the BACE1 signal peptide; also called WT; BACE1 ECD
Description: (§1) Maxisorp microtiter plates (Nalge Nunc International, Rochester, N.Y.) were coated overnight at 4° C. with 2 μg/ml BACE1 mutant in 50 mM carbonate, pH 9.6. The coated wells were washed with buffer (PBS, 0.05% Polysorbate 20) and blocked with assay buffer (PBS, pH 7.4, 0.5% BSA, 0.05% Tween 20, 15 ppm Proclin) for 1 h at room temperature with gentle shaking. […] After washing, the amount of peptide bound to the plate was detected by the addition of Streptavidin-Horseradish Peroxidase Conjugate (GE Healthcare, Piscataway, N.J.) followed by the addition of TMB/H₂O₂ substrate (KPL, Gaithersburg, Md.). The reaction was quenched with 1 M phosphoric acid and the A₄₅₀ measured on a Molecular Devices SpectraMax Plus384 microplate reader. Concentrations to give half maximal effective concentration (EC₅₀) were determined using a 4-parameter non-linear regression curve-fitting program with Kaleidagraph (Synergy Software, Reading, Pa.). […] Concentrations to give half maximal inhibition concentration (IC₅₀) were determined using a 4-parameter non-linear regression curve-fitting program with Kaleidagraph.
(§2) The fold decrease in binding affinity was determined as the relative EC₅₀ values of EC₅₀ (mut)/EC₅₀ (WT), which are listed in Table 3.

[2] = target: T2, human BACE1 ECD (22-457) T133A, His8 (human, UniProt P56817 22-457); test: ELISA; biotinylated BACE020 on plate-coated BACE1 ECD mutant; ratio to WT
T2 construct: also called T133A (72)
Description: as §1, §2

[3] = target: T3, human BACE1 ECD (22-457) K168A, His8 (human, UniProt P56817 22-457); test: as above
T3 construct: also called K168A (107)
Description: as §1, §2

[4] = target: T4, human BACE1 ECD (22-457) F169A, His8 (human, UniProt P56817 22-457); test: as above
T4 construct: also called F169A (108)
Description: as §1, §2

[5] = target: T5, human BACE1 ECD (22-457) I179A, His8 (human, UniProt P56817 22-457); test: as above
T5 construct: also called I179A (118)
Description: as §1, §2

[6] = target: human BACE1 ECD (22-457) R189A, His8 (human, UniProt P56817 22-457); test: as above
Description: as §1, §2

[7] = target: T6, human BACE1 ECD (22-457) K285A, His8 (human, UniProt P56817 22-457); test: as above
T6 construct: also called K285A (224)
Description: as §1, §2

[8] = target: T7, human BACE1 ECD (22-457) D289A, His8 (human, UniProt P56817 22-457); test: as above
T7 construct: also called D289A (228)
Description: as §1, §2

[9] = target: T8, human BACE1 ECD (22-457) G291A, His8 (human, UniProt P56817 22-457); test: as above
T8 construct: also called G291A (230)
Description: as §1, §2

[10] = target: T9, human BACE1 ECD (22-457) T292A, His8 (human, UniProt P56817 22-457); test: as above
T9 construct: also called T292A (231)
Description: as §1, §2

[11] = target: T10, human BACE1 ECD (22-457) T293A, His8 (human, UniProt P56817 22-457); test: as above
T10 construct: also called T293A (232)
Description: as §1, §2

[12] = target: T11, human BACE1 ECD (22-457) N294A, His8 (human, UniProt P56817 22-457); test: as above
T11 construct: also called N294A (233)
Description: as §1, §2

[13] = target: T12, human BACE1 ECD (22-457) G72A, His8 (human, UniProt P56817 22-457); test: as above
T12 construct: also called G72A (11)
Description: as §1, §2

[14] = target: T13, human BACE1 ECD (22-457) G74A, His8 (human, UniProt P56817 22-457); test: as above
T13 construct: also called G74A (13)
Description: as §1, §2

[15] = target: T14, human BACE1 ECD (22-457) L91A, His8 (human, UniProt P56817 22-457); test: as above
T14 construct: also called L91A (30)
Description: as §1, §2

[16] = target: T15, human BACE1 ECD (22-457) D93A, His8 (human, UniProt P56817 22-457); test: as above
T15 construct: also called D93A (32)
Description: as §1, §2

[17] = target: T16, human BACE1 ECD (22-457) S96A, His8 (human, UniProt P56817 22-457); test: as above
T16 construct: also called S96A (35)
Description: as §1, §2

[18] = target: T17, human BACE1 ECD (22-457) Y132A, His8 (human, UniProt P56817 22-457); test: as above
T17 construct: also called Y132A (71)
Description: as §1, §2

T13 sequence (P56817 other isoform, or with tags, fused parts or gaps G74A G74A): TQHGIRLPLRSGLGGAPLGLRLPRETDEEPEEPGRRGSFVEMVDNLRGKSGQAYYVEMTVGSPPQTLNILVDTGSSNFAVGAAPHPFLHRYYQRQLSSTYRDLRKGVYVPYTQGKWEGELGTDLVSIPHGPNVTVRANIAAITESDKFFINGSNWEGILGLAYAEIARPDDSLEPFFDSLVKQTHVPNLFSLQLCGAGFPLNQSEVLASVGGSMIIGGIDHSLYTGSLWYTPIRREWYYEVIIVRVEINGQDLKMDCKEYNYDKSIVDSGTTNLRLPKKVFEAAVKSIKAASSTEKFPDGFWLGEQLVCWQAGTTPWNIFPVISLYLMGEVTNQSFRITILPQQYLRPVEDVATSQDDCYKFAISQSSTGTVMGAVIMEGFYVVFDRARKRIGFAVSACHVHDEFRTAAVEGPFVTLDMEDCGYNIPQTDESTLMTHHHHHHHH
T8 sequence (P56817 other isoform, or with tags, fused parts or gaps G291A G291A): as the sequence (P56817 other isoform, or with tags, fused parts or gaps G74A G74A) above, with A53G, G270A counted along it
T10 sequence (P56817 other isoform, or with tags, fused parts or gaps T293A T293A): as the sequence (P56817 other isoform, or with tags, fused parts or gaps G74A G74A) above, with A53G, T272A counted along it
T15 sequence (P56817 other isoform, or with tags, fused parts or gaps D93A D93A): as the sequence (P56817 other isoform, or with tags, fused parts or gaps G74A G74A) above, with A53G, D72A counted along it
T12 sequence (P56817 other isoform, or with tags, fused parts or gaps G72A G72A): as the sequence (P56817 other isoform, or with tags, fused parts or gaps G74A G74A) above, with G51A, A53G counted along it
T3 sequence (P56817 other isoform, or with tags, fused parts or gaps K168A K168A): as the sequence (P56817 other isoform, or with tags, fused parts or gaps G74A G74A) above, with A53G, K147A counted along it
T16 sequence (P56817 other isoform, or with tags, fused parts or gaps S96A S96A): as the sequence (P56817 other isoform, or with tags, fused parts or gaps G74A G74A) above, with A53G, S75A counted along it
T7 sequence (P56817 other isoform, or with tags, fused parts or gaps D289A D289A): as the sequence (P56817 other isoform, or with tags, fused parts or gaps G74A G74A) above, with A53G, D268A counted along it
T5 sequence (P56817 other isoform, or with tags, fused parts or gaps I179A I179A): as the sequence (P56817 other isoform, or with tags, fused parts or gaps G74A G74A) above, with A53G, I158A counted along it
T17 sequence (P56817 other isoform, or with tags, fused parts or gaps Y132A Y132A): as the sequence (P56817 other isoform, or with tags, fused parts or gaps G74A G74A) above, with A53G, Y111A counted along it
T6 sequence (P56817 other isoform, or with tags, fused parts or gaps K285A K285A): as the sequence (P56817 other isoform, or with tags, fused parts or gaps G74A G74A) above, with A53G, K264A counted along it
T11 sequence (P56817 other isoform, or with tags, fused parts or gaps N294A N294A): as the sequence (P56817 other isoform, or with tags, fused parts or gaps G74A G74A) above, with A53G, N273A counted along it
T14 sequence (P56817 other isoform, or with tags, fused parts or gaps L91A L91A): as the sequence (P56817 other isoform, or with tags, fused parts or gaps G74A G74A) above, with A53G, L70A counted along it
Chain of human BACE1 ECD (22-457) R189A, His8 (P56817 other isoform, or with tags, fused parts or gaps R189A R189A): as the sequence (P56817 other isoform, or with tags, fused parts or gaps G74A G74A) above, with A53G, R168A counted along it
T9 sequence (P56817 other isoform, or with tags, fused parts or gaps T292A T292A): as the sequence (P56817 other isoform, or with tags, fused parts or gaps G74A G74A) above, with A53G, T271A counted along it
T2 sequence (P56817 other isoform, or with tags, fused parts or gaps T133A T133A): as the sequence (P56817 other isoform, or with tags, fused parts or gaps G74A G74A) above, with A53G, T112A counted along it
T1 sequence (P56817 other isoform, or with tags, fused parts or gaps): as the sequence (P56817 other isoform, or with tags, fused parts or gaps G74A G74A) above, with A53G counted along it
T4 sequence (P56817 other isoform, or with tags, fused parts or gaps F169A F169A): as the sequence (P56817 other isoform, or with tags, fused parts or gaps G74A G74A) above, with A53G, F148A counted along it

- Fold Decrease in Binding EC50 (Mut)/EC50 (WT) [1]: 1 fold
- Fold Decrease in Binding EC50 (Mut)/EC50 (WT) [2]: 1.1 fold
- Fold Decrease in Binding EC50 (Mut)/EC50 (WT) [3]: 1 fold
- Fold Decrease in Binding EC50 (Mut)/EC50 (WT) [4]: 1.9 fold
- Fold Decrease in Binding EC50 (Mut)/EC50 (WT) [5]: 2.6 fold
- Fold Decrease in Binding EC50 (Mut)/EC50 (WT) [6]: 2.7 fold
- Fold Decrease in Binding EC50 (Mut)/EC50 (WT) [7]: 4 fold
- Fold Decrease in Binding EC50 (Mut)/EC50 (WT) [8]: 2210 fold
- Fold Decrease in Binding EC50 (Mut)/EC50 (WT) [9]: 0.8 fold
- Fold Decrease in Binding EC50 (Mut)/EC50 (WT) [10]: 73.6 fold
- Fold Decrease in Binding EC50 (Mut)/EC50 (WT) [11]: 349 fold
- Fold Decrease in Binding EC50 (Mut)/EC50 (WT) [12]: 2.4 fold
- Fold Decrease in Binding EC50 (Mut)/EC50 (WT) [13]: 6.5 fold
- Fold Decrease in Binding EC50 (Mut)/EC50 (WT) [14]: 488 fold
- Fold Decrease in Binding EC50 (Mut)/EC50 (WT) [15]: 1 fold
- Fold Decrease in Binding EC50 (Mut)/EC50 (WT) [16]: 568 fold
- Fold Decrease in Binding EC50 (Mut)/EC50 (WT) [17]: 1 fold
- Fold Decrease in Binding EC50 (Mut)/EC50 (WT) [18]: 72.2 fold
B1: biotinylated BACE020 (Ac-NEESMYCRLLGIGCG-(PEG)3-biotin) (peptide)
peptide: Ac-NEESMYCRLLGIGCG-{NH(CH2)3(OCH2CH2)2O(CH2)3NH-biotin}
modifications: disulfide 7-14
notes: also called C-terminal biotin tagged BACE020 peptide
